Results reported in patent US8642284B1, “Methods for identifying agents that alter NAD-dependent deacetylation activity of a SIR2 protein” (Massachusetts Institute of Technology, priority 1999, dated 2014).

Tested on: NC(=O)c1ccc[n+]([C@@H]2O[C@H](COP(=O)([O-])OP(=O)(O)OC[C@H]3O[C@@H](n4cnc5c(N)ncnc54)[C@H](O)[C@@H]3O)[C@@H](O)[C@H]2O)c1
Assay: NAD-dependent deacetylation of di-acetylated H3 peptide by recombinant yeast Sir2p (HPLC)
Assay type: biochemical
Details: other: reaction about 50% of maximal level; pH 9.0
Procedure: The typical reaction of Sir2 deacetylase activity was performed in 50 μl of buffer containing 50 mM Tris-HCl [pH 9.0], 4 mM MgCl2, 0.2 mM DTT, variable concentration of cold nicotinamide adenine dinucleotide (NAD) or NAD derivatives (SIGMA®, MO), 5-10 μg of the purified recombinant Sir2 proteins, and 10 μg of the histone H3 N-terminal tail peptide (amino acid 1-20) di-acetylated at positions 9 and 14 (Upstate Biotechnology™, NY). […] To detect the ADP-ribosylation activity, 8 μCi of NAD 5′-[α-^32P]triphosphate (˜1000 Ci/mmol, Amersham Pharmacia Biotech™, NJ) was added to the same reaction containing 1 μM cold NAD. Histone H3 protein (4 μg) (Roche Molecular Biochemicals™, IN) were used for this assay. All reaction mixtures were incubated at room temperature for 1 hr. Trichostatin A and coumermycin A1 (SIGMA™) were prepared in dimethylsulfoxide (DMSO, SIGMA®), and 5 μl of solvent or inhibitor was added to the reactions prior to adding Sir2 proteins.
After the incubation, the products were precipitated at −20° C. overnight by adding 50 μl of distilled water and 25 μl of 100% trichloroacetic acid (TCA) solution. […] The chromatograms at the absorbance of 210 nm were digitally recorded and analyzed by Hewlett Packard ChemStation™ system (version A.06.03 [509]). […] PTH amino acid chromatograms were recorded and analyzed by the ABI Model 610A2.1 data integration/analysis system. […]

Substance: Sir2p (Saccharomyces cerevisiae S288C)
- Km: 100 µM
